In patent publication US20080299088A1 (US Dept. of Health and Human Services, published 2008):

Biological target: Notch-1 receptor on RIN 1046-38 clonal rat beta-cells (rat, UniProt Q07008 19-2531)
Experiment: cell-based or functional assay

Chain of Notch-1 receptor on RIN 1046-38 clonal rat beta-cells (Q07008 19-2531): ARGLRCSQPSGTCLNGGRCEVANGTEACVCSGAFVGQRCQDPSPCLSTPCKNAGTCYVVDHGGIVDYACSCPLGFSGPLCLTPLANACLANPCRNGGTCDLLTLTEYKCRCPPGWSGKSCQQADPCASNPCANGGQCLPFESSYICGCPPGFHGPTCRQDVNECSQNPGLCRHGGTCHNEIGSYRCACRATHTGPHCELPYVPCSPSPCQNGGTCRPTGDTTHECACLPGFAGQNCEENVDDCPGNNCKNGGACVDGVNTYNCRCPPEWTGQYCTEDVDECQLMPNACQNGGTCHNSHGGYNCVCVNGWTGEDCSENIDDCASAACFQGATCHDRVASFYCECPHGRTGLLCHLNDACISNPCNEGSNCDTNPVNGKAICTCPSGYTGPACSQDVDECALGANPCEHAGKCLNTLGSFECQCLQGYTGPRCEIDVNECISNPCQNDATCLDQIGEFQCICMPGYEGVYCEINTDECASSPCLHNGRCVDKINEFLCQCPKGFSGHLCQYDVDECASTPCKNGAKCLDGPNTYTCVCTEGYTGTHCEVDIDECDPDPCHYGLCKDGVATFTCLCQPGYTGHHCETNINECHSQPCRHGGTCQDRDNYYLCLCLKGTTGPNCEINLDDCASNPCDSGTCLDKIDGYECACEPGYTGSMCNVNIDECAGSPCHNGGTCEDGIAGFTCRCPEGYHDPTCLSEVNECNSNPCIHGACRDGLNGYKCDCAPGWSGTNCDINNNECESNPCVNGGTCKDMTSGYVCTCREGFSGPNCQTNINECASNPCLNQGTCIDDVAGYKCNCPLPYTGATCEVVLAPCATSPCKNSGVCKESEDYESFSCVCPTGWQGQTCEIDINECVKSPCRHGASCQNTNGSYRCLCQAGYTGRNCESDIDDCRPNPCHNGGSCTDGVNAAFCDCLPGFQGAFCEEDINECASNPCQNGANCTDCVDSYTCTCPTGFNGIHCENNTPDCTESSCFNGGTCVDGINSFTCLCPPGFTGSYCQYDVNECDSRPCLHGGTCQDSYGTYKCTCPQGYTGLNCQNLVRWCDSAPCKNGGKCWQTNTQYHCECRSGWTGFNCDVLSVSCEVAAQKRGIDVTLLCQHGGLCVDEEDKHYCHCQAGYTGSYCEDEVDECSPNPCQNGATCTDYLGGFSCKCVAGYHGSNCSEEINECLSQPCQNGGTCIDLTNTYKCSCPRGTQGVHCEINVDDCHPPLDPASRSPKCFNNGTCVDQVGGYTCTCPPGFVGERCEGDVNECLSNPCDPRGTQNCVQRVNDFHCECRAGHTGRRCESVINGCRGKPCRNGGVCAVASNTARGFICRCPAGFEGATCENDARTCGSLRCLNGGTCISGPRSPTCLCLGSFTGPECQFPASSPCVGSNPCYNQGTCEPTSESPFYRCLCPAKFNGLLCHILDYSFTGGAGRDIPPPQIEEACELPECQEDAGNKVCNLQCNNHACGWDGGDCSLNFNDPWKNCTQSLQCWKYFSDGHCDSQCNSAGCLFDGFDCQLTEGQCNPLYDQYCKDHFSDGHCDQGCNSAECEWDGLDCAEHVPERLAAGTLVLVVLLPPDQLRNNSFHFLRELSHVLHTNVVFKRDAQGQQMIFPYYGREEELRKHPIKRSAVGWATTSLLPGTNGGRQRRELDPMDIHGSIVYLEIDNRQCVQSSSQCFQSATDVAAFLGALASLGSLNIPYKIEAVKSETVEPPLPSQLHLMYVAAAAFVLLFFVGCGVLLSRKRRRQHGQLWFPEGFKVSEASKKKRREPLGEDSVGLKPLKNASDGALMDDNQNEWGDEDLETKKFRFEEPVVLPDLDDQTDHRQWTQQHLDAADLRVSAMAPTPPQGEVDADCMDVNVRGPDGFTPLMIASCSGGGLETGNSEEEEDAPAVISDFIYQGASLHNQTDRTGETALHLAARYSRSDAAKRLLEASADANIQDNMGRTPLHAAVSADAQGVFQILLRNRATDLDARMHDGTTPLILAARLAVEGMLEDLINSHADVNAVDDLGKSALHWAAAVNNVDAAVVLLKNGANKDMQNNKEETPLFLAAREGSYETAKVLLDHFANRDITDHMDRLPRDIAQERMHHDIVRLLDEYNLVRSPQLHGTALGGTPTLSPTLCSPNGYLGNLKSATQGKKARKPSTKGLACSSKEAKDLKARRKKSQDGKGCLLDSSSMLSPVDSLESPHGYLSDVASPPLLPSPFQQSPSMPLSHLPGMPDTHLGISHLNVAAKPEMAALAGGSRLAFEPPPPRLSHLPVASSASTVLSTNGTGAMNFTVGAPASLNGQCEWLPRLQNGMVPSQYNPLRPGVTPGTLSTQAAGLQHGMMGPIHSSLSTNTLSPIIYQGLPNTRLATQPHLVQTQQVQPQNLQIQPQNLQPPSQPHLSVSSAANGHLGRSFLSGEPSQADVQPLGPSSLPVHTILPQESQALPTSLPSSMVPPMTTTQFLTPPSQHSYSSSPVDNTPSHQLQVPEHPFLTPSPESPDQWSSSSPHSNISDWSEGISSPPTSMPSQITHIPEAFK

B1: Jagged peptide JAG-1 (peptide)
peptide: CDDYYYGFGCNKFCRPR
NICD translocation (nuclear NICD, immunoblot of nuclear extracts of RIN cells): 4 fold

B2: Jagged peptide R-JAG (peptide)
peptide: CDDYYYGFGCNKFGRPRDD
NICD nuclear localization, R-JAG together with glucose: 6 fold | NICD translocation (nuclear NICD, immunoblot of nuclear extracts of RIN cells): 4 fold
